Experimental data from doi:10.1101/2023.08.10.552882.

Target: human 26S proteasome (human) (UniProt O00487)
Assay: single-molecule TIRF microscopy

Chain of UniProt O00487 (O00487 whole entry, looked up): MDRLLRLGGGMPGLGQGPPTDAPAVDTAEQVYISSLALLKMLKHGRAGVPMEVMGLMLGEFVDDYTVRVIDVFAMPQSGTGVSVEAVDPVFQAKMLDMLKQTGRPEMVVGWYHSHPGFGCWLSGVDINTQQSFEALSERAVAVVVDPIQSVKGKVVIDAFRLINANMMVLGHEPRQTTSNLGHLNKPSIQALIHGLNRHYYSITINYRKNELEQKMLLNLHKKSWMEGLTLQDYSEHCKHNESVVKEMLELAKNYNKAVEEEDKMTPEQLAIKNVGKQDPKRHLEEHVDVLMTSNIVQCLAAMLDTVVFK

Row | half-life of the proteasome-substrate complex [s] | puncta density relative to pK48-polyUb-GFP [fold] | Substance
1 | 2.82 | 5 | K48-polyUb-GFP (from UniProt P0CG48)
2 | 0.73 |  | pK48-polyUb-GFP (from UniProt P0CG48)
